The source of these data is patent US20240010720A1 (IOMX THERAPEUTICS, published 2024).

Assay [1] addresses T1, IGSF11 ECD fused to murine-Fc (human; mouse, UniProt Q5DX21 23-241).
T1 construct: also called Fc-fusion IGSF11 ECD; full-length ECD of IGSF11; not shown: murine Fc
T1 sequence: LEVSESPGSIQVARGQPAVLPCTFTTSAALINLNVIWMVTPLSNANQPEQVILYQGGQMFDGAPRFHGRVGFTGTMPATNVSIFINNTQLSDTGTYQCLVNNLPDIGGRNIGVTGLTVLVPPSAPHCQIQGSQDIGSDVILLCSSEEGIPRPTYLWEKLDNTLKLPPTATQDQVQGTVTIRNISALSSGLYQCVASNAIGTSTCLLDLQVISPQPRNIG
The experiment in a line: ELISA, IgG. For orientation: In an ELISA, binding on a coated surface is turned into a signal by an enzyme label.

Assay [2] has as its target T2, murine IGSF11 on cells (mouse, UniProt P0C673 23-428).
T2 construct: UniProt P0C673; also called MC38-IGSF11 (murine); CT26-IGSF11 (murine)
T2 sequence: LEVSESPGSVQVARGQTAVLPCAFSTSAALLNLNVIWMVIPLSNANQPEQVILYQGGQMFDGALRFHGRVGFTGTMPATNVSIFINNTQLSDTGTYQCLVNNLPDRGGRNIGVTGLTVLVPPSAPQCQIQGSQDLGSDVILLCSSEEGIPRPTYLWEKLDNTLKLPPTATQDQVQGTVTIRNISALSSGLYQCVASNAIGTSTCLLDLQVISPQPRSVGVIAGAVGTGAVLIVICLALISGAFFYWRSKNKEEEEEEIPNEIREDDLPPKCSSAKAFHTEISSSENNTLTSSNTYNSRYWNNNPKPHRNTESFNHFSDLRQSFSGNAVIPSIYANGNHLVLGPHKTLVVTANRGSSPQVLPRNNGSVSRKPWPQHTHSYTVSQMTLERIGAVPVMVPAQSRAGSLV
The experiment in a line: FACS, MC38-IGSF11 cells, IgG.
Text: (§1) Unbound antibodies were removed by washing the cells three time with FACS buffer. Bound antibodies were detected with a mouse anti-human IgG antibody conjugated with AlexaFluor647.

The target in assay [3] is T2, murine IGSF11 on cells. The experiment in a line: FACS, CT26-IGSF11 cells, IgG.
Text: as §1
Assay [4] deals with T3, recombinant human IGSF11 (VSIG3) extracellular domain (ECD) (human, UniProt Q5DX21 23-241, biotinylated where captured on streptavidin).
T3 construct: also called biotinylated recombinant ECD-IGSF11; IGSF11 (ECD domain)
T3 sequence: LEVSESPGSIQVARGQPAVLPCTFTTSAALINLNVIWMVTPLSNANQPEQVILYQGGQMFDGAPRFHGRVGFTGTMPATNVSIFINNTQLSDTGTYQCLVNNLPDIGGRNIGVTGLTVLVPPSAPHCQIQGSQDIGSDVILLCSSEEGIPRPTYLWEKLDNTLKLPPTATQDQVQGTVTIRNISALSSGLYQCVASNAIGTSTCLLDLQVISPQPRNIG
Put plainly: BLI, apparent affinity, IgG captured, IGSF11 ECD 100 nM. For orientation: Biolayer interferometry detects binding as a change in optical thickness at a sensor tip.
Text: Briefly, various APBs were loaded on an optical biosensor via a commercially available Capture System (AHC sensors, ForteBio).

Assay [5] has as its target T4, human IGSF11 (VSIG3) on cells (human, UniProt Q5DX21 23-431).
T4 sequence: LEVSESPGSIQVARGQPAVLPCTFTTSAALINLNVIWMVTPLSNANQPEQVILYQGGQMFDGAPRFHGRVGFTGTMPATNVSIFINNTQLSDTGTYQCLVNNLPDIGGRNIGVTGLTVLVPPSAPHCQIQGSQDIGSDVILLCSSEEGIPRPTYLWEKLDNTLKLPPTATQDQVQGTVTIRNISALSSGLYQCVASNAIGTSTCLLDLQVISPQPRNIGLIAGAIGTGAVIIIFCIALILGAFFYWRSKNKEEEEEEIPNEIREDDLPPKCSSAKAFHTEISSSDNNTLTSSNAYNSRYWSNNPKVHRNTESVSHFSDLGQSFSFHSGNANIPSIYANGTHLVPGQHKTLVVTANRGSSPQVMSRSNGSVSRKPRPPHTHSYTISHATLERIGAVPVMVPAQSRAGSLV
Put plainly: FACS, MDA-MB-231-IGSF11 cells, IgG. Background: A flow cytometer gives signals particle by particle.
Text: as §1

Assay [6] concerns the target T5, recombinant cynomolgus monkey IGSF11 extracellular domain (ECD) (cynomolgus monkey, UniProt Q5DX21 23-241 (human entry), biotinylated).
T5 chain: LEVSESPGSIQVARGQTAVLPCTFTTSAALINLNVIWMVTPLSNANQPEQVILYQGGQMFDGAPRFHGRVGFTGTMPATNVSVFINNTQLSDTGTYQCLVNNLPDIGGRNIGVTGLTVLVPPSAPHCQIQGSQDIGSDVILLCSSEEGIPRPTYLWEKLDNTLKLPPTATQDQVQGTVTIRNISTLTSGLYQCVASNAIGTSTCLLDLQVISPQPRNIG
The experiment in a line: ELISA, Fab.
Experimental: (§2) In order to identify IGSF11-specific binding ABPs, monoclonal Fabs expressed from E. coli were generated from the enriched set of anti-IGFS11 antibody-expressing phage. After bacterial lysis, the Fabs were tested for their binding properties and cross-reactivity profile on recombinant ECD-IGSF11 (human, mouse and cynomolgus monkey) by standard ELISA. Briefly, biotinylated recombinant ECD-IGSF11 from human, mouse, or cynomolgus monkey were immobilized at 2 ug/mL on a streptavidin-coated 384-well Maxisorp plate. The surface was blocked with 2% (w/v) skim milk powder in PBST. After three wash cycles with PBST, a bacterial lysate of each of the anti-IGSF11 Fabs in 2% (w/v) skim milk powder was applied to the immobilized IGSF11 and incubated for 1 h. After removing all unbound Fab by 3 wash cycles with PBST, bound Fab antibodies were detected with a goat anti-human Fab antibody conjugated with horseradish peroxidase. After three wash cycles with PBST the ELISA was developed with TMB substrate.

Assay [7] concerns the target T6, recombinant murine IGSF11 extracellular domain (ECD) (mouse, UniProt P0C673 23-240, biotinylated).
T6 construct: also called Mouse IGSF11; murine ECD-IGSF11
T6 sequence: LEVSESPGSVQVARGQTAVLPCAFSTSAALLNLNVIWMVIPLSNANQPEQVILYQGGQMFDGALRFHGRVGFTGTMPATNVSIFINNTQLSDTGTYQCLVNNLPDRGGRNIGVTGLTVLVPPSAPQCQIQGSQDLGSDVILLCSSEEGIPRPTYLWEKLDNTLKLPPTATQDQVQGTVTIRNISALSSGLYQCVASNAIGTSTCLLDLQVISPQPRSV
Put plainly: ELISA, Fab.
Experimental: as §2

A further assay concerns the target T7, Streptavidin (UniProt P22629 37-163, limits assumed).
T7 construct: also called negative antigen; irrelevant antigen
The experiment in a line: ELISA, Fab.

In assay [8] the target is T3, recombinant human IGSF11 (VSIG3) …. Put plainly: ELISA, Fab.
Experimental: as §2
In assay [9] the target is T4, human IGSF11 (VSIG3) on cells. Put plainly: FACS, IgG1-format antibodies; CL-11 cells (C), a line that does not express IGSF11 (specificity control), IGSF11 siRNA (KD).
Assay [10] addresses T1, IGSF11 ECD fused to murine-Fc. Put plainly: ELISA, IgG. The source holds these as a separate data set.
Assay [11] concerns the target T4, human IGSF11 (VSIG3) on cells. Put plainly: FACS, IgG1-format antibodies; CL-11 cells (C), a line that does not express IGSF11 (specificity control), scrambled control siRNA (SC).
For assay [12] the target is unchanged. Put plainly: FACS, HEK cells expressing IGSF11.
For assay [13] the target is unchanged. Put plainly: FACS, IgG1-format antibodies; M579-A2-luc cells (M) treated with IGSF11 siRNA (KD).
Assay [14] deals with T3, recombinant human IGSF11 (VSIG3) …. The experiment in a line: BLI, IgG1.
Assay [15] addresses T4, human IGSF11 (VSIG3) on cells. The experiment in a line: FACS, IgG1-format antibodies; M579-A2-luc cells (M) treated with scrambled control siRNA (SC).
The target of assay [16] is T3, recombinant human IGSF11 (VSIG3) …. Put plainly: SPR, IgG1.
For assay [17], the target named is T4, human IGSF11 (VSIG3) on cells. The experiment in a line: FACS, IgG1-format antibodies; DMS 273 cells (D) treated with scrambled control siRNA (SC).
The target of assay [18] is T8, His-tagged extracellular domain (ECD) of human IGSF11 (VSIG3) (human, UniProt Q5DX21 23-241).
T8 construct: partly bought (SinoBiological 13094-H08H); also called IGSF11-HIS; HIS-IGSF11; not shown: HIS6 tag
T8 sequence: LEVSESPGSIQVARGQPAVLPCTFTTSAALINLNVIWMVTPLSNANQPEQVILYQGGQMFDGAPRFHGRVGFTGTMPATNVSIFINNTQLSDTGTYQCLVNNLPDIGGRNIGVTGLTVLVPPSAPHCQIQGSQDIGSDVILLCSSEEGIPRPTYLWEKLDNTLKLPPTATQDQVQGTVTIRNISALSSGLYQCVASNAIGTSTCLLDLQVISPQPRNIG
Put plainly: ELISA EC50 grade, IgG1.

Assay [19] addresses T4, human IGSF11 (VSIG3) on cells. The experiment in a line: FACS, IgG1-format antibodies; DMS 273 cells (D) treated with IGSF11 siRNA (KD).
For assay [20], the target named is T8, His-tagged extracellular domain (ECD) …. Put plainly: blocking ELISA: antibody pre-incubated with His-tagged IGSF11 ECD, complexes added to immobilised VSIR-Fc; y axis % remaining IGSF11 binding to VSIR, x axis nM IgG per legend.
Assay [21] shares this target. The experiment in a line: ELISA: IgG1-format antibody titrated on coated His-tagged IGSF11; x axis nM IgG, y axis absorbance per legend.

Where two headings read alike, the source gives them in different places. Where only a bound is given, the exact number is not on record here.

T7 sequence (P22629 37-163 limits assumed): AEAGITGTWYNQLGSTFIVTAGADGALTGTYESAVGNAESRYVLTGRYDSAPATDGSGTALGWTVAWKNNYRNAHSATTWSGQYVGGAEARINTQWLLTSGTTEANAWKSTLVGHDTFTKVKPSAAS
Experimental for Streptavidin: as §2

B1: C-007 (IgG1 format) (antibody, V domains shown)
VH: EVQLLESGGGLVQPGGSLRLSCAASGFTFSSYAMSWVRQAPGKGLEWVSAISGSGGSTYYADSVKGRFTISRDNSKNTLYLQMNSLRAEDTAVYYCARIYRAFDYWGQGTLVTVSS
VL: ASVLTQPPSVSAAPGQKVTISCSGSSSNIGNNYVSWYQQLPGTAPKLLIYDNNKRPSGIPDRFSGSKSGTSATLGITGLQAEDEADYYCQLYEEEHSTWVFGGGTKLTVL
notes: wildtype human IgG1 and kappa or lambda constant regions
As for B1, the EC50 (commonly the midpoint of the concentration-response curve) was less than 1 nM in [1], less than 20 nM with murine IGSF11 on cells [2], 20 to 50 nM with murine IGSF11 on cells [3] and less than 10 nM in assay [5]. Further, in [4], the Kd is less than 125 nM.

B2: C-001 (IgG1 format) (antibody, V domains shown)
VH: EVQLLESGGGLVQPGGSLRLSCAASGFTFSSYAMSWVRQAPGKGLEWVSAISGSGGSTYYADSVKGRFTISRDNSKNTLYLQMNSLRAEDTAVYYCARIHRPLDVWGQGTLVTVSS
VL: ASVLTQPPSVSAAPGQKVTISCSGSSSNIGNNYVSWYQQLPGTAPKLLIYDNNKRPSGIPDRFSGSKSGTSATLGITGLQAEDEADYYCGSWLEERSQYVFGGGTKLTVL
notes: wildtype human IgG1 and kappa or lambda constant regions; also called ABP C-001
Turning to B2, the EC50 is less than 1 nM in assay [1], 50 to 100 nM with murine IGSF11 on cells [2], 20 to 50 nM with murine IGSF11 on cells [3] and less than 10 nM in [5]. Also, the Kd in assay [4] is less than 75 nM.

B3: C-005 (IgG1 format) (antibody, V domains shown)
VH: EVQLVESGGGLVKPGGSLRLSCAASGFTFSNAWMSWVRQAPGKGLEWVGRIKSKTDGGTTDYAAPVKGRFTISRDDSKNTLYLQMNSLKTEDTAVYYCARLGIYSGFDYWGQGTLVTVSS
VL: SYELTQPPSVSVSPGQTASITCSGDKLGDKYASWYQQKPGQSPVLVIYQDSKRPSGIPERFSGSNSGNTATLTISGTQAEDEADYYCHSYTGKPSQVVFGGGTKLTVL
notes: as for B1
B3: the EC50 in [1] is less than 1 nM; with murine IGSF11 on cells [2], less than 20 nM; with murine IGSF11 on cells [3], less than 20 nM; in assay [5] it was less than 10 nM. Also, the Kd in assay [4] is less than 15 nM.

B4: C-018 (Fab format) (Fab, V domains shown)
VH: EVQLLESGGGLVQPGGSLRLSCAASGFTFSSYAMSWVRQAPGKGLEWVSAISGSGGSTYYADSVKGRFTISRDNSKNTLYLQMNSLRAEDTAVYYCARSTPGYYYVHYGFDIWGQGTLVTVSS
VL: SYELTQPPSVSVSPGQTASITCSGDKLGDKYASWYQQKPGQSPVLVIYQDSKRPSGIPERFSGSNSGNTATLTISGTQAEDEADYYCQAWSTSTHSWVFGGGTKLTVL
notes: Fab in E. coli lysate
As for B4, the A450 in assay [6] was less than 1; in assay [7], less than 1; in the assay with Streptavidin it was less than 0.1; in assay [8], less than 1.

B5: C-019 (Fab format) (Fab, V domains shown)
VH: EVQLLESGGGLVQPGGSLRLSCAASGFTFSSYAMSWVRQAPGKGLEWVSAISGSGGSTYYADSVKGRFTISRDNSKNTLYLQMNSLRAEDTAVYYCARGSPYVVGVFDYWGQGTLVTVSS
VL: DIQMTQSPSSLSASVGDRVTITCRASQSISSYLNWYQQKPGKAPKLLIYAASSLQSGVPSRFSGSGSGTDFTLTISSLQPEDFATYYCQQWQHEPPYTFGQGTKVEIK
notes: Fab in E. coli lysate
As for B5, the A450 in assay [6] was less than 1; in assay [7] it was less than 1; in the assay with Streptavidin, less than 0.1; in [8], less than 1.

B6: A-011 (IgG1 format) (antibody, V domains shown)
VH: QVQLVESGGGVVQPGRSLRLSCAASGFTFSSYAMHWVRQAPGKGLEWVAVISYDGSNKYYADSVKGRFTISRDNSKNTLYLQMNSLRAEDTAVYYCAEGGALNYYGMDVWGQGTTVTVSS
VL: SSELTQDPGVSVALGQTVRITCQGDSLRHFYATWYQQKPGQAPILVIYGKNNRPSGIPDRFSGSSSEDTASLTITGAQAEDEADYYCQSRDPRNNHLIFGGGTKLIVL
notes: human IgG1 format
B6: the “percentage binding (FACS heat-map)” value in assay [9] was 4.86%; in assay [11] it was 2.87%; in assay [13], 2.41%; in assay [15], 2.05%; in assay [17], 6.95%; in assay [19], 3.4%. Besides, the EC50 in assay [10] was less than 1 nM; in assay [12] it was greater than 50 nM; in assay [18], less than 0.02 nM. Moreover, the Kd in [14] lay within 10 to 20 nM; in assay [16], 250 to 500 nM.

B7: B-006 (chain-swapped IgG1) (antibody, V domains shown)
VH: EVQLVESGGGLIQPGGSLRLSCAASGFTVSSNYMSWVRQAPGKGLEWVSVIYSGGSTYYADSVKGRFTISRDNSKNTLYLQMNSLRAEDTAVYYCARGNPYYYGDLQVNFDYWGQGTLVTVSS
VL: QAVVTQEPSLTVSPGETVTLTCASSTGAVTSGYYPNWFQQRPGQAPRALIYSTSNKDSWTPARFSGSLLGGKAALTLSGVQPEDEAEYYCLLYYGGAWVFGGGTKLTVL
notes: human IgG1 format; also called B6
On to B7, for which the “IC50 (read off the curve)” value in [20] is roughly 5 nM. In addition, the EC50 (read off the curve) (as a rule, the concentration that produces a half-maximal response) in assay [21] was roughly 0.02 nM.

B8: B-008 (chain-swapped IgG1) (antibody, V domains shown)
VH: EVQLVESGGGLIQPGGSLRLSCAASGFTVSSNYMSWVRQAPGKGLEWVSVIYSGGSTYYADSVKGRFTISRDNSKNTLYLQMNSLRAEDTAVYYCARGNPYYYGDLQVNFDYWGQGTLVTVSS
VL: QAVVTQEPSLTVSPGGTVTPTCGSSTGAVTSGNLPNWFQQKPGQAPRALIYSTSNKHSWTPARISGSLLGGKAALTLSGVQPEDEAEYYCLLYYGGAWVFGGGTKLTVL
notes: human IgG1 format; also called B8
In the case of B8, the “IC50 (read off the curve)” value in [20] was roughly 4 nM.
